Among the data in US20180291110A1 (Hoffmann-La Roche, published 2018) are koff, Kd and kon values, retold here.

Test [1] concerns the target T1, human transferrin receptor (recombinant, for surface plasmon resonance) (human, UniProt P02786 89-760).
T1 construct: also called huTfR; human transferrin receptor-biotinylated
Description: SPR. (In general: SPR reads the build-up and loss of mass on a sensor chip optically.)

Test [2] addresses T2, Her2 ECD (amino acids 1 to 629 of matured HER2 with C-terminal avi-tag and His-tag) (human, UniProt P04626 23-652).
T2 construct: also called purified Her2
Description: SPR, Ab captured, Her2 analyte.

Test [3] has as its target T2, Her2 ECD (amino acids 1 to 629 of …). Briefly: SPR, Ab captured, Her2 analyte. The source holds these as a separate data set.

Numbering of substitutions follows the chain as printed. Like-named read-outs stand apart in the source and are kept apart here.

T1 sequence (P02786 89-760 limits assumed): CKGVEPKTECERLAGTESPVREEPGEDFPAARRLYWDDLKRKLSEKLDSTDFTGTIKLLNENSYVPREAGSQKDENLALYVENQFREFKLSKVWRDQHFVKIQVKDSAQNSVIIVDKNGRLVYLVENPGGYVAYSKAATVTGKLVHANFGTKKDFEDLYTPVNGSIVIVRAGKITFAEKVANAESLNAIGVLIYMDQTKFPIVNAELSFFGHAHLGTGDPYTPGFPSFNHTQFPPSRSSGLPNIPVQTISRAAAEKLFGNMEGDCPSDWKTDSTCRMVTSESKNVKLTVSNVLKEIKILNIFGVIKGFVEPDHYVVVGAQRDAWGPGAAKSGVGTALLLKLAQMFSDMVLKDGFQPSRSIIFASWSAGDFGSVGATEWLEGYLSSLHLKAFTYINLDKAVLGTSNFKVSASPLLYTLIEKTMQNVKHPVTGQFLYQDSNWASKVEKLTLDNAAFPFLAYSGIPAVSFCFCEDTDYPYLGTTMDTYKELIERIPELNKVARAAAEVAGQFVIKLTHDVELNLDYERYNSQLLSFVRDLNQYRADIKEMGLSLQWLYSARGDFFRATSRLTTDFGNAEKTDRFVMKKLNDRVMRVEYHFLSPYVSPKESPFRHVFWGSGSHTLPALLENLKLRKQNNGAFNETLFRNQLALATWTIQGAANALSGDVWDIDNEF

B1: 4/94 SEQ ID NO 195 / murine VL (antibody, V domains shown)
VH: QVQLVQSGAEVKKPGASVKVSCKASGFNIKDTYIHWVIQAPGQGLEWMGRIDPANGDTKSAPKFQVRVTITADTSTSTVYMELSSLRSEDTAVYYCVRDYLYPYYFDFWGQGTTVTVSS
VL: KIVMTQSPKSMSMSVGERVTLNCRASESVDTYVSWYQQKPEQSPELLIYGASNRYTGVPDRFTGSGSATDFTLTISSVQAEDLADYYCGQTYNYPLTFGAGTKLELKR
Take B1: in test [1], the dissociation rate constant (koff) (in general, the rate constant with which the complex falls apart) was 0.000364 s⁻¹.

B2: 4/94 SEQ ID NO 196 / SEQ ID NO 207 (antibody, V domains shown)
VH: B1 VH with A61D, V66G
VL: KIVLTQSPGTLSLSPGERATLSCRASESVDTYVSWYQQKPGQAPRLLIYGASNRYTGVPDRFSGSGSGTDFTLTISRLEPEDFADYYCGQTYNYPLTFGQGTKLEI
With B2, the dissociation rate constant (koff) in test [1] was determined as 0.00043 s⁻¹.

B3: 4/94 SEQ ID NO 196 / SEQ ID NO 201 (antibody, V domains shown)
VH: B1 VH with A61D, V66G
VL: KIQMTQSPSSLSASVGDRVTITCRASESVDTYVSWYQQKPGKAPKLLIYGASNRYTGVPSRFSGSGSGTDFTLTISSLQPEDFADYYCGQTYNYPLTFGQGTKLEI
Consider B3, for which the dissociation rate constant (koff) in test [1] was 0.000386 s⁻¹.

B4: 4/94 SEQ ID NO 199 / murine VL (antibody, V domains shown)
VH: QVQLQESGPGLVKPSETLSLTCTVSGFNIKDTYIHWVIQRPGKGLEWIGRIDPANGDTKSDPSLQSRVTISADTSKNQASLKLSSVTAADTAVYYCVRDYLYPYYFDFWGQGTTVTVSS
VL: B1 VL
As for B4, the koff in test [1] stood at 0.000381 s⁻¹.

B5: 4/94 SEQ ID NO 200 / murine VL (antibody, V domains shown)
VH: EVQLVESGGGLVQPGGSLRLSCAASGFNIKDTYIHWVIQAPGKGLEWVGRIDPANGDTKSDPSVQVRATISADTSKNTAYLQMNSLRAEDTAVYYCVRDYLYPYYFDFWGQGTTVTVSS
VL: B1 VL
B5: the dissociation rate constant (koff) in test [1] came out at 0.000232 s⁻¹.

B6: 4/94 SEQ ID NO 198 / SEQ ID NO 209 (antibody, V domains shown)
VH: B1 VH with A16S, A40R, A61D, V66G, T74E, V79A
VL: B2 VL with V58I
For the molecule B6, the off-rate (koff) in test [1] amounted to 0.000728 s⁻¹.

B7: 4/94 SEQ ID NO 198 / SEQ ID NO 207 (antibody, V domains shown)
VH: B1 VH with A16S, A40R, A61D, V66G, T74E, V79A
VL: B2 VL
As for B7, the dissociation rate constant (koff) in test [1] turned out to be 0.000717 s⁻¹.

B8: 4/94 SEQ ID NO 198 / murine VL (antibody, V domains shown)
VH: B1 VH with A16S, A40R, A61D, V66G, T74E, V79A
VL: B1 VL
B8: the dissociation rate constant (koff) in test [1] amounted to 0.000544 s⁻¹.

B9: 4/94 SEQ ID NO 196 / SEQ ID NO 209 (antibody, V domains shown)
VH: B1 VH with A61D, V66G
VL: B2 VL with V58I
With B9, the koff in test [1] is 0.000452 s⁻¹.

B10: 4/94 SEQ ID NO 195 / SEQ ID NO 209 (antibody, V domains shown)
VH: B1 VH
VL: B2 VL with V58I
Consider B10, for which the off-rate (koff) in test [1] was 0.000438 s⁻¹.

B11: 4/94 SEQ ID NO 198 / SEQ ID NO 201 (antibody, V domains shown)
VH: B1 VH with A16S, A40R, A61D, V66G, T74E, V79A
VL: B3 VL
On to B11, for which the koff in test [1] was 0.000684 s⁻¹.

B12: 4/94 SEQ ID NO 194 / SEQ ID NO 208 (antibody, V domains shown)
VH: B1 VH with A61D
VL: B2 VL with K1E
In the case of B12, the koff in test [1] is 0.000476 s⁻¹.

B13: 4/94 SEQ ID NO 197 / SEQ ID NO 208 (antibody, V domains shown)
VH: B1 VH with A16S, A61D, V66G, T74E, V79A
VL: B2 VL with K1E
For the molecule B13, the off-rate (koff) in test [1] was 0.000683 s⁻¹.

B14: 4/94 SEQ ID NO 197 / SEQ ID NO 207 (antibody, V domains shown)
VH: B1 VH with A16S, A61D, V66G, T74E, V79A
VL: B2 VL
For the molecule B14, the dissociation rate constant (koff) in test [1] stood at 0.000703 s⁻¹.

B15: 4/94 SEQ ID NO 196 / SEQ ID NO 208 (antibody, V domains shown)
VH: B1 VH with A61D, V66G
VL: B2 VL with K1E
Take B15: in test [1], the off-rate constant (koff) stood at 0.000434 s⁻¹.

B16: 4/94 SEQ ID NO 194 / SEQ ID NO 209 (antibody, V domains shown)
VH: B1 VH with A61D
VL: B2 VL with V58I
Regarding B16, in test [1], the off-rate constant (koff) amounted to 0.000448 s⁻¹.

B17: 4/94 SEQ ID NO 197 / SEQ ID NO 209 (antibody, V domains shown)
VH: B1 VH with A16S, A61D, V66G, T74E, V79A
VL: B2 VL with V58I
Take B17: the off-rate constant (koff) in test [1] came out at 0.000705 s⁻¹.

B18: 4/94 SEQ ID NO 195 / SEQ ID NO 208 (antibody, V domains shown)
VH: B1 VH
VL: B2 VL with K1E
Regarding B18, the koff in test [1] worked out at 0.000415 s⁻¹.

B19: 4/94 SEQ ID NO 195 / SEQ ID NO 207 (antibody, V domains shown)
VH: B1 VH
VL: B2 VL
B19: the off-rate (koff) in test [1] stood at 0.000426 s⁻¹.

B20: 4/94 SEQ ID NO 197 / SEQ ID NO 201 (antibody, V domains shown)
VH: B1 VH with A16S, A61D, V66G, T74E, V79A
VL: B3 VL
Regarding B20, in test [1], the dissociation rate constant (koff) came to 0.000657 s⁻¹.

B21: 4/94 SEQ ID NO 194 / SEQ ID NO 201 (antibody, V domains shown)
VH: B1 VH with A61D
VL: B3 VL
For B21, the off-rate (koff) in test [1] was determined as 0.00041 s⁻¹.

B22: 4/94 SEQ ID NO 195 / SEQ ID NO 201 (antibody, V domains shown)
VH: B1 VH
VL: B3 VL
On to B22, for which, in test [1], the dissociation rate constant (koff) amounted to 0.000399 s⁻¹.

B23: 4/94 SEQ ID NO 198 / SEQ ID NO 208 (antibody, V domains shown)
VH: B1 VH with A16S, A40R, A61D, V66G, T74E, V79A
VL: B2 VL with K1E
As to B23, the dissociation rate constant (koff) in test [1] amounted to 0.000717 s⁻¹.

B24: 4/94 SEQ ID NO 194 / SEQ ID NO 207 (antibody, V domains shown)
VH: B1 VH with A61D
VL: B2 VL
Consider B24, for which, in test [1], the koff was found to be 0.000454 s⁻¹.

B25: 4/94 SEQ ID NO 197 / murine VL (antibody, V domains shown)
VH: B1 VH with A16S, A61D, V66G, T74E, V79A
VL: B1 VL
As to B25, the koff in test [1] was found to be 0.000542 s⁻¹.

B26: 4/94 SEQ ID NO 200 / SEQ ID NO 207 (antibody, V domains shown)
VH: B5 VH
VL: B2 VL
For the molecule B26, the koff in test [1] was 0.000299 s⁻¹.

B27: 4/94 SEQ ID NO 200 / SEQ ID NO 209 (antibody, V domains shown)
VH: B5 VH
VL: B2 VL with V58I
For B27, in test [1], the off-rate (koff) worked out at 0.000326 s⁻¹.

B28: 4/94 SEQ ID NO 200 / SEQ ID NO 208 (antibody, V domains shown)
VH: B5 VH
VL: B2 VL with K1E
For the molecule B28, in test [1], the off-rate constant (koff) turned out to be 0.000306 s⁻¹.

B29: 4/94 SEQ ID NO 199 / SEQ ID NO 201 (antibody, V domains shown)
VH: B4 VH
VL: B3 VL
Regarding B29, the koff in test [1] amounted to 0.000486 s⁻¹.

B30: 4/94 SEQ ID NO 200 / SEQ ID NO 201 (antibody, V domains shown)
VH: B5 VH
VL: B3 VL
Consider B30, for which, in test [1], the koff was 0.000274 s⁻¹.

B31: 4/94 SEQ ID NO 199 / SEQ ID NO 207 (antibody, V domains shown)
VH: B4 VH
VL: B2 VL
As for B31, in test [1], the koff was determined as 0.000527 s⁻¹.

B32: 4/94 SEQ ID NO 199 / SEQ ID NO 209 (antibody, V domains shown)
VH: B4 VH
VL: B2 VL with V58I
In the case of B32, the off-rate constant (koff) in test [1] stood at 0.000552 s⁻¹.

B33: 4/94 SEQ ID NO 199 / SEQ ID NO 208 (antibody, V domains shown)
VH: B4 VH
VL: B2 VL with K1E
In the case of B33, the off-rate constant (koff) in test [1] amounted to 0.00055 s⁻¹.

B34: Pertuzumab HC x Pertuzumab (Tras.L3) LC (antibody, V domains shown)
VH: EVQLVESGGGLVQPGGSLRLSCAASGFTFTDYTMDWVRQAPGKGLEWVADVNPNSGGSIYNQRFKGRFTLSVDRSKNTLYLQMNSLRAEDTAVYYCARNLGPSFYFDYWGQGTLVTVSS
VL: DIQMTQSPSSLSASVGDRVTITCKASQDVSIGVAWYQQKPGKAPKLLIYSASYRYTGVPSRFSGSGSGTDFTLTISSLQPEDFATYYCQQHYTTPPTFGQGTKVEIK
notes: human IgG
On to B34, for which, in test [2], the affinity, expressed as Kd, was 4.96 nM; the koff amounted to 0.00209 s⁻¹; the association rate constant (kon) (in general, the second-order rate constant of association) came out at 422000 M⁻¹ s⁻¹. Also, in test [3], binding was put at a Kd of 26.7 nM, the koff stood at 0.00173 s⁻¹ and the kon came out at 64700 M⁻¹ s⁻¹.

B35: Trastuzumab HC x Pertuzumab (Tras.L3) LC (antibody, V domains shown)
VH: not shown
VL: B34 VL
notes: human IgG
Regarding B35, in test [2], the Kd (commonly the free concentration of one partner at which half of the binding sites on the other are occupied at equilibrium, for simple one-to-one binding) was 72.5 nM; the koff worked out at 0.0236 s⁻¹; the kon stood at 325000 M⁻¹ s⁻¹. In test [3], this molecule came in with a Kd of 1090 nM, a koff of 0.05 s⁻¹ and a kon of 41900 M⁻¹ s⁻¹.
